These are literature values, as cited in paper PMC6844576.

A word on the Kd: it is the free concentration of one partner at which half of the binding sites on the other are occupied at equilibrium, for simple one-to-one binding.

This series deals with IL-6 receptor (Homo sapiens) (UniProt P08887). The experiment in a line: 125I-rhIL-6 radioligand binding.
Sequence of UniProt P08887 (P08887 20-365): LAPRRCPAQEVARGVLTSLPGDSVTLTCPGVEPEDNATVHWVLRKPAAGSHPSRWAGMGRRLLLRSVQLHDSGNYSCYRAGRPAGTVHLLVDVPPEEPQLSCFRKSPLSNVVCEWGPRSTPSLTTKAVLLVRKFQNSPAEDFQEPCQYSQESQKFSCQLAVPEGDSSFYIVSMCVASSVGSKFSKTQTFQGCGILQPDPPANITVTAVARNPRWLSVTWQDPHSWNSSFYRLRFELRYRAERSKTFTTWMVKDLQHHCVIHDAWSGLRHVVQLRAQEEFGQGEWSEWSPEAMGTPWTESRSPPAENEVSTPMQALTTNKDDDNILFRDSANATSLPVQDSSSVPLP

In the case of interleukin-6 (from UniProt P05231), the Kd was 0.44 nM.
